According to publication PMC12754688 (Gut Microbes, 2025):

B1: monovalent VHH BL2.1 (VHH)
VHH: QVQLQQSGGGLVQAGGSLRLSCAASGFTFDDYAIGWFRQAPGKEREGISSIVGSDNYTWYTDSVKGRFTISSDNTRSTVYLQMNSLKPEDTAVYYCAADSYSDYVSLNPETFGSWGQGTQVTVSS
notes: also called LT109; non-N-glycosylated BL2.1; source: E. coli BL21 (DE3), periplasmic extract, purified (IMAC, cation exchange)
B2: BL2.1 (monovalent VHH) (VHH)
VHH: B1 VHH
notes: also called LT109; VHH BL2.1; source: E. coli BL21 (DE3), periplasmic extract, purified (IMAC, cation exchange)

Key:
Settings in all cases: both partners purified
[1] = target: T1, heat-labile enterotoxin B-subunit pentamer (LTB-6HIS-3FLAG) (Escherichia coli (ETEC), human-type …, UniProt P0CK94, biotin (NHS-PEG4-Biotin) in the DELFIA experiments only); test: BLI; Octet RED96; […] (76 nM) […] (120–0.470 nM); […]
[2] = target: T1, heat-labile enterotoxin B-subunit …; test: SPR; Biacore 8K+; […] (1–300 nM); single-cycle kinetics, HBS-EP+, 30 µl min^−1, 25 °C; global 1:1 model
[3] = target: T2, cholera toxin holotoxin (AB5) (Vibrio cholerae; strain/ctxB genotype …, UniProt P01555;P01556); test: SEC
T2 construct: source: Vibrio natriegens, from culture medium, purified (D-galactose column, SEC); copies: 1 + 5

[4] = target: T1, heat-labile enterotoxin B-subunit …; test: SPR; Biacore 8K+; […] (1–300 nM); single-cycle kinetics, HBS-EP+, 30 µl min^−1, 25 °C; global 1:1 model; […]
[5] = target: T3, cholera toxin B-subunit pentamer (Vibrio cholerae; ctxB genotype of …, UniProt P01556); test: BLI
T3 construct: source: bought: Sigma-Aldrich (C9903)

[6] = target: T4, CTXB pentamer (receptor-binding B-subunit of cholera toxin) (Vibrio cholerae; ctxB genotype of …, UniProt P01556); test: SPR; Biacore 8K+; […] (5 µg/ml) […] (1-300 nM), single-cycle kinetics, HBS-EP+, 30 µl/min, 25 °C; global 1:1 fit; […]
T4 construct: source: bought: Sigma-Aldrich (C9903)

[7] = target: T5, LTB pentamer (receptor-binding B-subunit of heat-labile enterotoxin), LTB-6HIS-3FLAG (Escherichia coli (ETEC), human-type …, UniProt P0CK94); test: as above
T5 construct: source: E. coli BL21 (DE3), periplasmic extract, purified (IMAC)

[8] = target: T4, CTXB pentamer (receptor-binding …); test: BLI; Octet RED96; […] (76 nM) […] (120-0.470 nM); global 1:1 ([…]) fit; […]
[9] = target: T5, LTB pentamer (receptor-binding …); test: as above
[10] = target: T4, CTXB pentamer (receptor-binding …); test: SPR; Biacore 8K+; […] (1 µg/ml) […] (1-300 nM), single-cycle kinetics, HBS-EP+, 30 µl/min, 25 °C; global 1:1 fit; […]
[11] = target: T5, LTB pentamer (receptor-binding …); test: as above

T2 sequence (P01556 22-124, looked up, chain 1 of 2): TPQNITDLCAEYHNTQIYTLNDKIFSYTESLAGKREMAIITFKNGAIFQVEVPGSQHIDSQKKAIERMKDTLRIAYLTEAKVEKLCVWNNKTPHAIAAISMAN
T2 sequence (P01555 whole entry, looked up, chain 2 of 2): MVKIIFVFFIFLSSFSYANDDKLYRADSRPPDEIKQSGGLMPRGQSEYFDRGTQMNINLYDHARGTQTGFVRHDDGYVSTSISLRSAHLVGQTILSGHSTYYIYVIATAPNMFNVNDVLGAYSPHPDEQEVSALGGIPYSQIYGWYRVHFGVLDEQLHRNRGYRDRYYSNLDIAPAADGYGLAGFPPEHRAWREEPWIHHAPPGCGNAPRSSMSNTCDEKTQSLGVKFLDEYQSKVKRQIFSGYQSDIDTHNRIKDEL

Binder | Kd [1] | Kd [2] | binding result [3] | Kd [4] | Kd [5] | koff [6] | kon [6] | koff [7] | kon [7] | koff [8] | kon [8] | koff [9] | kon [9] | koff [10] | kon [10] | koff [11] | kon [11]
B1 | < 0.001 nM | 0.26 nM | binds | 0.003 nM | 0.33 nM | – | – | – | – | – | – | – | – | – | – | – | –
B2 | – | – | – | – | – | 0.00179 s⁻¹ | 218000 M⁻¹ s⁻¹ | 0.000182 s⁻¹ | 696000 M⁻¹ s⁻¹ | 3.53e-05 s⁻¹ | 108000 M⁻¹ s⁻¹ | < 1e-07 s⁻¹ | 69700 M⁻¹ s⁻¹ | 0.000212 s⁻¹ | 557000 M⁻¹ s⁻¹ | 2.48e-05 s⁻¹ | 7.93e+06 M⁻¹ s⁻¹
